In publication doi:10.1101/431494:

How the values were obtained:
[1] = target: Haliangium ochraceum encapsulated ferritin as crystallised (PDB 5N5F) (Haliangium ochraceum) (UniProt D0LZ73); assay: crystal structure
[2] = target: Haliangium ochraceum encapsulated ferritin, residues 1-98, C-terminal hexa-histidine tagged variant (Haliangium ochraceum) (UniProt D0LZ73); assay: SDS-PAGE

Substance	stoichiometry N [1]	stoichiometry N [2]
Haliangium ochraceum encapsulated ferritin as crystallised (PDB 5N5F) (from UniProt D0LZ73 1-98) (domain or fragment)	10	
Haliangium ochraceum encapsulated ferritin, residues 1-98, C-terminal hexa-histidine tagged variant (from UniProt D0LZ73 1-98) (domain or fragment)		2
